In patent publication US6096520A, “Brain glycogen phosphorylase cancer antigen” (Ludwig Institute for Cancer Research, priority 1998, dated 2000):

B1: SEQ ID NO:2: fragment of brain glycogen phosphorylase nucleic acid ending at position 161 (nucleic acid)
DNA: ATGGGCGAACCGCTGACGGACAGCGAGAAGCGGAAGCAGATCAGCGTGCGCGGCCTGGCGGGGCTAGGCGACGTGGCCGAGGTGCGGAAGAGCTTCAACCGG
modifications: chemistry not fully specified
B2: SEQ ID NO:3: fragment of brain glycogen phosphorylase nucleic acid ending at position 140 (nucleic acid)
DNA: ATGGGCGAACCGCTGACGGACAGCGAGAAGCGGAAGCAGATCAGCGTGCGCGGCCTGGCGGGGCTAGGCGACGTGGCCGAG
modifications: chemistry not fully specified
B3: SEQ ID NO:1: shortest exonuclease III fragment of brain glycogen phosphorylase nucleic acid, ending 100 bp after the start codon (nucleic acid)
DNA: ATGGGCGAACCGCTGACGGACAGCGAGAAGCGGAAGCAGATCAGCGTGCGCGGCCTGGCGGGGCTAGGCGACGTGGCCGAGGTGCGGAAGAGCTTCAACCGGCACTTGCA
modifications: chemistry not fully specified
notes: shortest exonuclease III fragment of brain glycogen phosphorylase nucleic acid, ending 100 bp after the start codon

system: antigen recognized by CTL 246/76; test: TNF release from CTL 246/76 provoked by HOB cells transfected with cDNA fragment and HLA-A2; format: cell-based, human; details: fragment cotransfected with HLA-A2 into HOB cells
Procedure: The transfection of HOB cells was made in duplicate wells. Briefly, samples of HOB cells were seeded, at 15,000 cells/well into tissue culture flat bottom microwells, in DMEM supplemented with 10% fetal calf serum. The cells were incubated overnight at 37° C., medium was removed and then replaced by 100 μl/well total volume of DMEM medium containing 20% Nu-Serum (Collaborative Research, Bedford, Mass.), 300 μg/ml DEAE-dextran, and 200 μM chloroquine, plus 100 ng of the LB373-MEL cDNA library cloned in pcDNAI/Amp and 50 ng of HLA-A2 cloned in pcDNAI/Amp. Following four hours of incubation at 37° C., the medium was removed, and replaced by 50 μl of PBS containing 10% dimethyl sulfoxide (DMSO). This medium was removed after two minutes and replaced by 200 μl of DMEM supplemented with 10% FCS.
Following this change in medium, HOB cells were incubated for 48 hours at 37° C. The transfectants then were screened with CTL 246/76. After first removing the medium, 2000 CTL 246/76 cells were added to each well in 100 μl of medium containing 25 U/ml IL-2. The amount of TNF present in the supernatant was then measured by testing its cytotoxicity for WEHI 164.13 cells. Most pools gave a TNF concentration below 5 pg/ml. cDNAs from pools which gave higher concentrations in both of the duplicate wells were cloned in bacteria. Their plasmid DNA was extracted and transfected into HOB cells with HLA-A2. The transfectants were screened with CTL 246/76. One cDNA clone gave a high TNF production by CTL 246/76. The cDNA was sequenced, compared with DNA sequence databases and determined to encode brain glycogen phosphorylase.
Fragments of the brain glycogen phosphorylase cDNA were prepared by exonuclease III digestion from the 3' end of the cDNA according to art standard procedures, were cloned into an expression vector and transfected into HOB cells with HLA-A2 as described above. As a positive control, the brain glycogen phosphorylase cDNA was cotransfected with HLA-A2 into HOB cells. These transfectants were used to provoke release of TNF from CTL 246/76 cells.
Shorter fragments were generated by PCR. […]

Row | Molecule | confers expression of the antigen recognized by CTL 246/76
1 | B1 | did confer expression of the antigen
2 | B2 | did not confer expression of the antigen
3 | B3 | able to confer expression of the antigen
